We go through two molecules from article PMC11096365, “Cryo-EM structures of the human Elongator complex at work” (Nature Communications, 2024).

Data set [1] has as its target ELP1;ELP2;ELP3 K164A (Homo sapiens;Homo sapiens;Homo sapiens, UniProt O95163;Q6IA86;Q9H9T3 1-1332;1-826;1-547, ||K164A). Put plainly: MST; MST: 20 mM HEPES pH 7.5, 100 mM NaCl, 5 mM DTT, 0.05% Tween 20; incubated at 4 C 30 min, measured at 25 C; Cy5-tRNA 14 or 30 nM. Cryo-EM: 20 mM HEPES pH 7.5, 100 mM NaCl, 2 mM MgCl2, 2 mM DTT. As to conditions: protein: recombinant;recombinant;recombinant; tags: ;;C-terminal Twin-Strep-Tag; chain copies: 2;2;2; label: internal Cy5 (5% Cy5-CTP) for MST; tRNA fold.

For data set [2], the target named is ELP1;ELP2;ELP3 R242K (Homo sapiens;Homo sapiens;Homo sapiens, UniProt O95163;Q6IA86;Q9H9T3 1-1332;1-826;1-547, ||R242K). The description is as above. As to conditions: protein: recombinant;recombinant;recombinant; tags: ;;C-terminal Twin-Strep-Tag; chain copies: 2;2;2; label: internal Cy5 (5% Cy5-CTP) for MST; tRNA fold.
Data set [3] has as its target ELP1;ELP2;ELP3 Y529A/Y530A (Homo sapiens;Homo sapiens;Homo sapiens, UniProt O95163;Q6IA86;Q9H9T3 1-1332;1-826;1-547, ||Y529A;Y530A). The data set is described as above. Particulars: protein: recombinant;recombinant;recombinant; tags: ;;C-terminal Twin-Strep-Tag; chain copies: 2;2;2; label: internal Cy5 (5% Cy5-CTP) for MST; tRNA fold.
In data set [4] the target is ELP1;ELP2;ELP3 wild type (Homo sapiens;Homo sapiens;Homo sapiens, UniProt O95163;Q6IA86;Q9H9T3 1-1332;1-826;1-547, ||). The description is as above. As to conditions: protein: recombinant;recombinant;recombinant; tags: ;;C-terminal Twin-Strep-Tag; chain copies: 2;2;2; label: internal Cy5 (5% Cy5-CTP) for MST; tRNA fold.
Sequence of ELP1;ELP2;ELP3 wild type (Q6IA86 whole entry, chain 2 of 3, one chain of several): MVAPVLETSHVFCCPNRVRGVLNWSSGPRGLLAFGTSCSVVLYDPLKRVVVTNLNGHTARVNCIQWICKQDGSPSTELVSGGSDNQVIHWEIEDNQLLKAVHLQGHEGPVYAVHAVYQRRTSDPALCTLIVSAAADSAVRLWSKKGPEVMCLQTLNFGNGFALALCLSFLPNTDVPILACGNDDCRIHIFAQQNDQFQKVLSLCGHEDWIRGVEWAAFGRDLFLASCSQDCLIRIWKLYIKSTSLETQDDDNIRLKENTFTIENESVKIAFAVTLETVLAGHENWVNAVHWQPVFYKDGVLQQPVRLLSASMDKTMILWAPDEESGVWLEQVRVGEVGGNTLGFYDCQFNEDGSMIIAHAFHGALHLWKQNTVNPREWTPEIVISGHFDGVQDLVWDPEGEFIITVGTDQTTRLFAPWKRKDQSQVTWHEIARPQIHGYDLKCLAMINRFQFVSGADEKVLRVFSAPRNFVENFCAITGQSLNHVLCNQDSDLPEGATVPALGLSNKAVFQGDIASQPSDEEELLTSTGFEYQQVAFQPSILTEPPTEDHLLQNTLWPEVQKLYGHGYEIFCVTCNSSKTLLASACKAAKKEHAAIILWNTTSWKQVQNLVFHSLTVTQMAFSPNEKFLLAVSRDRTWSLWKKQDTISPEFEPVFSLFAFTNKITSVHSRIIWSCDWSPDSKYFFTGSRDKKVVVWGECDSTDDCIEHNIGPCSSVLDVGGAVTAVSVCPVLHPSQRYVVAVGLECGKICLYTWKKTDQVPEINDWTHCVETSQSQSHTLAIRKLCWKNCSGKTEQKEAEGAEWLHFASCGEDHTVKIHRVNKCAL
The target in data set [5] is ELP1;ELP2;ELP3 E474A (Homo sapiens;Homo sapiens;Homo sapiens, UniProt O95163;Q6IA86;Q9H9T3 1-1332;1-826;1-547, ||E474A). Described as above. As to conditions: protein: recombinant;recombinant;recombinant; tags: ;;C-terminal Twin-Strep-Tag; chain copies: 2;2;2; label: internal Cy5 (5% Cy5-CTP) for MST; tRNA fold.
Data set [6] addresses ELP1;ELP2;ELP3 R402T (Homo sapiens;Homo sapiens;Homo sapiens, UniProt O95163;Q6IA86;Q9H9T3 1-1332;1-826;1-547, ||R402T). The data set is described as above. Particulars: protein: recombinant;recombinant;recombinant; tags: ;;C-terminal Twin-Strep-Tag; chain copies: 2;2;2; label: internal Cy5 (5% Cy5-CTP) for MST; tRNA fold.
Data set [7] concerns the target ELP1;ELP2;ELP3 Y363A (Homo sapiens;Homo sapiens;Homo sapiens, UniProt O95163;Q6IA86;Q9H9T3 1-1332;1-826;1-547, ||Y363A). The description is as above. As to conditions: protein: recombinant;recombinant;recombinant; tags: ;;C-terminal Twin-Strep-Tag; chain copies: 2;2;2; label: internal Cy5 (5% Cy5-CTP) for MST; tRNA fold.
Data set [8] addresses ELP1;ELP2;ELP3 K280A (Homo sapiens;Homo sapiens;Homo sapiens, UniProt O95163;Q6IA86;Q9H9T3 1-1332;1-826;1-547, ||K280A). Described as above. Particulars: protein: recombinant;recombinant;recombinant; tags: ;;C-terminal Twin-Strep-Tag; chain copies: 2;2;2; label: internal Cy5 (5% Cy5-CTP) for MST; tRNA fold.
Data set [9] deals with ELP1;ELP2;ELP3 H476A (Homo sapiens;Homo sapiens;Homo sapiens, UniProt O95163;Q6IA86;Q9H9T3 1-1332;1-826;1-547, ||H476A). The description is as above. As to conditions: protein: recombinant;recombinant;recombinant; tags: ;;C-terminal Twin-Strep-Tag; chain copies: 2;2;2; label: internal Cy5 (5% Cy5-CTP) for MST; tRNA fold.
In data set [10] the target is T1, human ELP3 with C-terminal Twin-Strep-Tag (human, UniProt Q9H9T3 1-547).
T1 construct: ELP3, human, codon-optimized open reading frame, UniProt Q9H9T3; with the tag 65 kDa as printed; Same material as the ELP3 chain of m4; carries an iron-sulfur cluster in all structures; also called ELP3 with Twin-Strep-Tag (TST); source: SuperSf9-3 insect cells, co-expressed with ELP1 and ELP2 (pBig1a), purified as ELP123 (StrepTrap, heparin, Superose 6); not shown: Twin-Strep-Tag, C-terminal, …
T1 sequence (looked up): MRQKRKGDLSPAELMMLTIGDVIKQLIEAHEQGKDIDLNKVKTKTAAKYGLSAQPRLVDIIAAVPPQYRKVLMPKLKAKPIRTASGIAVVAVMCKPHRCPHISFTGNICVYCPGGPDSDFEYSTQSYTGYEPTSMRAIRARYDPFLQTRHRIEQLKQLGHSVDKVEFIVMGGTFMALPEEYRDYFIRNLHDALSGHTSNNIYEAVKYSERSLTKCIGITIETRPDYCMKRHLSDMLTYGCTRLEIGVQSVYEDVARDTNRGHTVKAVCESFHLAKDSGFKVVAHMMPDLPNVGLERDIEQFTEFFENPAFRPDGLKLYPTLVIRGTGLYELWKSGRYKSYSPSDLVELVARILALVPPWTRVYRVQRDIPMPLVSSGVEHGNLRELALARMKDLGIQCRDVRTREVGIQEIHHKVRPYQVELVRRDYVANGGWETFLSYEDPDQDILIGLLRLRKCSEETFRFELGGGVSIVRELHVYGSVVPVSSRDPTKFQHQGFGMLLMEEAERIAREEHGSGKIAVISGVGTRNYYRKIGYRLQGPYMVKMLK
As to the kind of experiment: co-purification with SDS-PAGE; ELP1, ELP2 and ELP3-Twin-Strep co-expressed in insect cells; StrepTrap, heparin and Superose 6 columns; SDS-PAGE of the purified subcomplex. As to conditions: partners not purified.

Data set [11] deals with the molecule itself. As to the kind of experiment: cryo-EM structure; co-expressed, co-purified ELP123 (0.6 g/l) without or with tRNA (3.3 µM), acetyl-CoA/DCA/ECA (0.5 mM) and SAM (1 mM); 20 mM HEPES pH 7.5, 100 mM NaCl, 2 mM MgCl2, 2 mM DTT; single-particle analysis.

Sequence of ELP1;ELP2;ELP3 Y529A/Y530A (Q6IA86 whole entry, chain 2 of 3, one chain of several): as the sequence (Q6IA86 whole entry, chain 2 of 3, one chain of several) above
Sequence of ELP1;ELP2;ELP3 Y529A/Y530A (Q9H9T3 whole entry Y529A/Y530A, chain 3 of 3, one chain of several): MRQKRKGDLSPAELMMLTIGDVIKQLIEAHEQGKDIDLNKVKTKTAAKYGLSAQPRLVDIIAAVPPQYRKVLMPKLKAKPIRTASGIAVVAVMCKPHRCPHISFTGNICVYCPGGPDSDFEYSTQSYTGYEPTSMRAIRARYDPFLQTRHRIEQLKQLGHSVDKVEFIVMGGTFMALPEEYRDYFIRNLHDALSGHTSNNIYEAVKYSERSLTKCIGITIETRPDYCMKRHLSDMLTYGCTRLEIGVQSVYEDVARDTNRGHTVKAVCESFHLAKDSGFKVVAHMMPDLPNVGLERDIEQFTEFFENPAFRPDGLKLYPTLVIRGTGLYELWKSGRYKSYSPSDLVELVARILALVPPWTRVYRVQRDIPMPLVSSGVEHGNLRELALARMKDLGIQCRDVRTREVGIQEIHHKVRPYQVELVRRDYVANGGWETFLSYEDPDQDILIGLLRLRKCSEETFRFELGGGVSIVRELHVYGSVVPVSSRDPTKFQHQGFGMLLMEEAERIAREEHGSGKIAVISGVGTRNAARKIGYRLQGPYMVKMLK

B1: tRNAGlnUUG (structured_RNA)
RNA: GGCCCCAUGGUGUAAUGGUUAGCACUCUGGACUUUGAAUCCAGCGAUCCGAGUUCAAAUCUCGGUGGGACCUCCA
Turning to B1, the binding result in data set [1], in data set [2], in data set [5], in data set [6], in data set [7] and in [8] was “binds” each time. Further, the binding result in [9] is reported as “binds”. The equilibrium dissociation constant (Kd) (as a rule, the equilibrium constant for the complex coming apart) in data set [3] is 94.7 ± 5.2 nM; in data set [4] it was 37.6 ± 5.3 nM.

B2: human ELP1 (natural protein, UniProt O95163 1-1332, looked up)
chain: MRNLKLFRTLEFRDIQGPGNPQCFSLRTEQGTVLIGSEHGLIEVDPVSREVKNEVSLVAEGFLPEDGSGRIVGVQDLLDQESVCVATASGDVILCSLSTQQLECVGSVASGISVMSWSPDQELVLLATGQQTLIMMTKDFEPILEQQIHQDDFGESKFITVGWGRKETQFHGSEGRQAAFQMQMHESALPWDDHRPQVTWRGDGQFFAVSVVCPETGARKVRVWNREFALQSTSEPVAGLGPALAWKPSGSLIASTQDKPNQQDIVFFEKNGLLHGHFTLPFLKDEVKVNDLLWNADSSVLAVWLEDLQREESSIPKTCVQLWTVGNYHWYLKQSLSFSTCGKSKIVSLMWDPVTPYRLHVLCQGWHYLAYDWHWTTDRSVGDNSSDLSNVAVIDGNRVLVTVFRQTVVPPPMCTYQLLFPHPVNQVTFLAHPQKSNDLAVLDASNQISVYKCGDCPSADPTVKLGAVGGSGFKVCLRTPHLEKRYKIQFENNEDQDVNPLKLGLLTWIEEDVFLAVSHSEFSPRSVIHHLTAASSEMDEEHGQLNVSSSAAVDGVIISLCCNSKTKSVVLQLADGQIFKYLWESPSLAIKPWKNSGGFPVRFPYPCTQTELAMIGEEECVLGLTDRCRFFINDIEVASNITSFAVYDEFLLLTTHSHTCQCFCLRDASFKTLQAGLSSNHVSHGEVLRKVERGSRIVTVVPQDTKLVLQMPRGNLEVVHHRALVLAQIRKWLDKLMFKEAFECMRKLRINLNLIYDHNPKVFLGNVETFIKQIDSVNHINLFFTELKEEDVTKTMYPAPVTSSVYLSRDPDGNKIDLVCDAMRAVMESINPHKYCLSILTSHVKKTTPELEIVLQKVHELQGNAPSDPDAVSAEEALKYLLHLVDVNELYDHSLGTYDFDLVLMVAEKSQKDPKEYLPFLNTLKKMETNYQRFTIDKYLKRYEKAIGHLSKCGPEYFPECLNLIKDKNLYNEALKLYSPSSQQYQDISIAYGEHLMQEHMYEPAGLMFARCGAHEKALSAFLTCGNWKQALCVAAQLNFTKDQLVGLGRTLAGKLVEQRKHIDAAMVLEECAQDYEEAVLLLLEGAAWEEALRLVYKYNRLDIIETNVKPSILEAQKNYMAFLDSQTATFSRHKKRLLVVRELKEQAQQAGLDDEVPHGQESDLFSETSSVVSGSEMSGKYSHSNSRISARSSKNRRKAERKKHSLKEGSPLEDLALLEALSEVVQNTENLKDEVYHILKVLFLFEFDEQGRELQKAFEDTLQLMERSLPEIWTLTYQQNSATPVLGPNSTANSIMASYQQQKTSVPVLDAELFIPPKINRRTQWKLSLLD
notes: ELP1, human, codon-optimized open reading frame, UniProt O95163; predicted MW printed as 148 kDa; Same material as the ELP1 chain of m4; The ORF was first cloned into pFastBac1 HT A; source: SuperSf9-3 insect cells, co-expressed with ELP2 and ELP3 (pBig1a), purified as ELP123 (StrepTrap, heparin, Superose 6)
In the case of B2, in [10], the stoichiometry N (commonly the number of molecules, sites or subunits per partner or assembly) is 1. In [11], the binding result was “binds”.
